Test results as given in patent US20190315843A1 (PROTHENA BIOSCIENCES, published 2019).

target: T1, wildtype human α-synuclein (human, UniProt P37840 1-140); test: ELISA on α-synuclein, twofold dilution series of the antibody

Row | Binder | binding result
1 | humanized 5C1 H1L1 (antibody, V domains shown, The constant region is not specified) VH: QVQLVQSGAELKKPGSSVKVSCKASGYTFTNYWMNWVRQAPGQGLEWIGATNPNNGYTDYNQRFKDRATLTADKSTNTAYMELSSLRSEDTAVYYCARGGHLAYWGQGTLVTVSS VL: DVVMTQSPLSLSVSPGEPASISCRSSQSLFHSKGNTYLHWYLQKPGQSPKLLINRVSNRFSGVPDRFSGSGSGTDFTLKISRVEAEDVGVYFCSQSAHVPWTFGGGTKVEIK | no binding (tested: 1000 (x axis has no unit))
2 | humanized 5C1 H3L3 (antibody, V domains shown, The constant region is not specified) VH: QVQLVQSGAELKKPGSSVKVSCKASGYTFTNYWMNWVRQAPGQGLEWIGATNPNNGYTDYNQRFKDRATLTADKSTNTAYMELSSLRSEDTAVYFCASGGHLAYWGQGTLVTVSS VL: DVVMTQSPLSLSVSPGEPASISCRSSQSLFHSKGNTYLHWYLQKPGQSPQLLINRVSNRFSGVPDRFSGSGSGTDFTLKISRVEAEDVGVYFCSQSAHVPWTFGGGTKVEIK | binds
3 | humanized 5C1 H3L1 (antibody, V domains shown, The constant region is not specified) VH: QVQLVQSGAELKKPGSSVKVSCKASGYTFTNYWMNWVRQAPGQGLEWIGATNPNNGYTDYNQRFKDRATLTADKSTNTAYMELSSLRSEDTAVYFCASGGHLAYWGQGTLVTVSS VL: DVVMTQSPLSLSVSPGEPASISCRSSQSLFHSKGNTYLHWYLQKPGQSPKLLINRVSNRFSGVPDRFSGSGSGTDFTLKISRVEAEDVGVYFCSQSAHVPWTFGGGTKVEIK | binds

target: T1, wildtype human α-synuclein; test: SPR (Biacore), antibody captured on anti-human IgG chip, alpha synuclein flowed over, 1:1 model, global fit
Experimental: An anti-human IgG CMS Biacore chip was prepared following the protocol supplied by GE Healthcare.
Data was collected and double reference subtracted to account for drift and a small amount of nonspecific binding. The data was analyzed using BIAcore evaluation software using a 1:1 model and a global fit.

Row | Binder | Kd [nM] | koff [s⁻¹] | kon [M⁻¹ s⁻¹]
4 | humanized 5C1 H4L3 (antibody, V domains shown, The human constant region is not specified; also called h5C1_H4L3) VH: QVQLVQSGAELKKPGSSVKVSCKASGYTFTNYWMNWVRQAPGQGLEWIGATNPNNGYTDYNQRFKDRATLTADKSTNTAYMELSSLRSEDTAVYYCASGGHLAYWGQGTLVTVSS VL: DVVMTQSPLSLSVSPGEPASISCRSSQSLFHSKGNTYLHWYLQKPGQSPQLLINRVSNRFSGVPDRFSGSGSGTDFTLKISRVEAEDVGVYFCSQSAHVPWTFGGGTKVEIK | 120 | 0.0051 | 
5 | chimeric 5C1 antibody (antibody, V domains shown, also called Ch5C1) VH: QVQLQQSGAELAKPGTSVQMSCKASGYTFTNYWMNWIKARPGQGLEWIGATNPNNGYTDYNQRFKDKAILTADKSSNTAYMHLSSLTSEDSAVYFCASGGHLAYWGQGTVVTVSA VL: DVVMTQIPLYLSVSPGDQASISCRSSQSLFHSKGNTYLHWYLQKPGQSPKLLINRVSNRFSGVPDRFSGSGSGTDFTLKISGVEAEDLGVYFCSQSAHVPWTFGGGTKLEIR | 86 | 0.0053 | 
6 | murine 5C1 antibody (antibody, mouse IgG1, V domains shown, also called m5C1; mouse 5C1) VH: QVQLQQSGAELAKPGTSVQMSCKASGYTFTNYWMNWIKARPGQGLEWIGATNPNNGYTDYNQRFKDKAILTADKSSNTAYMHLSSLTSEDSAVYFCASGGHLAYWGQGTVVTVSA VL: DVVMTQIPLYLSVSPGDQASISCRSSQSLFHSKGNTYLHWYLQKPGQSPKLLINRVSNRFSGVPDRFSGSGSGTDFTLKISGVEAEDLGVYFCSQSAHVPWTFGGGTKLEIR | 68.7 | 0.0051 | 75000
7 | humanized 5C1 H5L4 (antibody, V domains shown, The human constant region is not specified; also called h5C1_H5L4) VH: QVQLVQSGAELKKPGSSVKVSCKASGYTFTNYWMNWVRQAPGQGLEWIGATNPNNGYTDYNQRFKDRVTITADKSTNTAYMELSSLRSEDTAVYYCASGGHLAYWGQGTLVTVSS VL: DIVMTQSPLSLSVSPGEPASISCRSSQSLFHSKGNTYLHWYLQKPGQSPQLLIYRVSNRFSGVPDRFSGSGSGTDFTLKISRVEAEDVGVYFCSQSAHVPWTFGGGTKVEIK | 1060 |  | 
8 | humanized 5C1 H5L3 (antibody, V domains shown, The human constant region is not specified; also called h5C1_H5L3) VH: QVQLVQSGAELKKPGSSVKVSCKASGYTFTNYWMNWVRQAPGQGLEWIGATNPNNGYTDYNQRFKDRVTITADKSTNTAYMELSSLRSEDTAVYYCASGGHLAYWGQGTLVTVSS VL: DVVMTQSPLSLSVSPGEPASISCRSSQSLFHSKGNTYLHWYLQKPGQSPQLLINRVSNRFSGVPDRFSGSGSGTDFTLKISRVEAEDVGVYFCSQSAHVPWTFGGGTKVEIK | 283 |  | 
9 | humanized 5C1 H4L4 (antibody, V domains shown, The human constant region is not specified; also called h5C1_H4L4) VH: QVQLVQSGAELKKPGSSVKVSCKASGYTFTNYWMNWVRQAPGQGLEWIGATNPNNGYTDYNQRFKDRATLTADKSTNTAYMELSSLRSEDTAVYYCASGGHLAYWGQGTLVTVSS VL: DIVMTQSPLSLSVSPGEPASISCRSSQSLFHSKGNTYLHWYLQKPGQSPQLLIYRVSNRFSGVPDRFSGSGSGTDFTLKISRVEAEDVGVYFCSQSAHVPWTFGGGTKVEIK | 601 |  | 
10 | humanized 5C1 H3L4 (antibody, V domains shown, It was captured on an anti-human IgG chip, so it carries a human constant region, which is not specified; also called h5C1_H3L4) VH: QVQLVQSGAELKKPGSSVKVSCKASGYTFTNYWMNWVRQAPGQGLEWIGATNPNNGYTDYNQRFKDRATLTADKSTNTAYMELSSLRSEDTAVYFCASGGHLAYWGQGTLVTVSS VL: DIVMTQSPLSLSVSPGEPASISCRSSQSLFHSKGNTYLHWYLQKPGQSPQLLIYRVSNRFSGVPDRFSGSGSGTDFTLKISRVEAEDVGVYFCSQSAHVPWTFGGGTKVEIK | 1240 |  | 
